We go through one molecule from patent US20250195629A1, “SITE-SPECIFIC BRAIN THERAPEUTICS” (William Marsh Rice University, priority 2023, published 2025).

A short description of series [1]: Mouse body weight analysis. Format: in vivo. The conditions noted are these: day 0 vs 2 days after injection, RLuc8.6 100 mg/kg, AADC-IKVAV 250 mg/kg. How it is done: To assess the potential impact of the RAID approach on the body weight of the mice involved in behavior analysis (n=11 mice for the FUS alone+L-DOPA group and n=14 mice for the FUS+AADC-IKVAV (SEQ ID NO: 23)+L-DOPA group), their body weight was recorded on a daily basis before and after FUS-BBBO administration. […] The body weight of the additional group of mice was also recorded in a similar manner; however, unintentionally four mice were omitted from weighing on the day following the AADC-IKVAV (SEQ ID NO: 23) injection. Similarly, the mouse body weight was recorded before and after the intravenous injection of unmodified or engineered RLuc8.6, which is related to the study presented in FIG. 5.

The next series has as its system GFAP+ astrocytes. As to the kind of experiment: Safety analysis, GFAP staining for astrocytic activation. Type of series: in vivo, mouse. The conditions noted are these: RAID treatment, FUS+AADC-IKVAV. The text has this: Additionally, the brain sections stained for GFAP were imaged using a 4× objective in DAPI (nuclei) and far-red (GFAP) channels. Three square areas were then selected in both the left and right striatum respectively, each with 3×3 binning, for imaging with a 40× objective to quantify GFAP+ cells.
In FIG. 7, we applied the following brightness (white) thresholds for the corresponding channels: 6045 (DAPI, nuclei, not shown), 15,000 (Cy3, D1R), 16,000 (green, D2R), and 6045 (far-red, c-Fos), with a gamma value of 1. In FIG. 11, we applied a Brightness (White) threshold of 6045 for both DAPI (nuclei, not shown) and far-red (c-Fos) channels, with a Gamma value of 1. The images were then overlayed, and the c-Fos+ cells were manually counted. Similarly, the GFAP+ cells were manually counted, as shown in FIG. 15c and FIG. 17, by applying a Brightness (White) threshold of 5686 and a Gamma value of 1 for both the DAPI (nuclei) and far-red (GFAP, purple) channels.
Adjacent sections were stained separately with an anti-GFAP antibody to examine astrocytic activation. […]

A short description of series [2]: AADC immunostaining, AADC-IKVAV retention and spatial targeting after FUS-BBBO. Type of series: in vivo, mouse. The conditions noted are these: for local AADC levels (AADC+ pixels) in FUS-targeted region vs FUS alone control group: 250 mg/kg i.v., one FUS site left CPu, 2 days. How it is done:
c-Fos […] injection of recombinant protein AADC-IKVAV (SEQ ID NO: 23) (20 mg/mL, 250 mg/kg) or equivalent volume of PBS buffer (n=5 mice for FUS alone+L-DOPA group). After 48 h, the mice were given a single dose of L-DOPA (0.1 mg/mL, 2 mg/kg, i.p.; Spectrum Chemical) 10 min after injection of carbidopa (1 mg/mL, 25 mg/kg, i.p.; Sigma-Aldrich), both of which were dissolved in sterile saline containing 2.5 and 0.125 mg/mL ascorbic acid. […] After 2 hours, the mice were euthanized by transcardial perfusion, and their brains were extracted and sliced into 50 μm coronal sections following 24-48 hours of fixation.
Immunostaining of AADC was performed as follows: (1) incubate the brain sections in 1× antigen retrieval solution (catalog number: 00-4955-58; Invitrogen) overnight in a 60° C. water bath; (2) block sections in 5% normal goat serum (SouthernBiotech) and 0.3% Triton-X solution in PBS for 1 h at room temperature; (3) incubate with primary rabbit anti-AADC antibody (1:500, 10166-1-AP, Proteintech) for staining AADC-IKVAV (SEQ ID NO: 23) in blocking buffer for 2 h at room temperature; (4) after washing three times in PBS (15 min each, the same as below), incubate with secondary goat anti-rabbit antibody conjugated to Alexa Fluor 647 (1:750, A-21245, ThermoFisher) in blocking buffer for 2 h at room temperature; (5) after washing three times, mount sections onto glass slides using the mounting media (Vector Laboratories) with DAPI and air-dry overnight in dark before imaging.
To analyze AADC-IKVAV (SEQ ID NO: 23) retention, as depicted in FIG. 7 and FIG. 11, stained coronal sections within the striatum were captured using a ×4 objective in DAPI (nuclei, not shown) and far-red (AADC) channels. Among these sections, the one displaying the most intense AADC fluorescence was chosen as the representative for each mouse. Subsequently, the selected sections were further examined at a higher magnification (×40 objective) for quantitative comparison. […] This area was imaged using a ×40 objective. Additionally, corresponding contralateral areas in the right striatum were also imaged.
To quantify the AADC-IKVAV (SEQ ID NO: 23) retention in the FUS targeted region, as shown in FIG. 7 and FIG. 11, the histological images were analyzed using ImageJ (version 1.53t). Specifically, the average pixel intensity of the AADC-IKVAV (SEQ ID NO: 23) channel image captured on the contralateral side of each representative section was calculated to establish the background for that section.
Immediately afterwards, the mice were sacrificed for immunohistochemical analysis of AADC-IKVAV (SEQ ID NO: 23) retention as already mentioned. The section displaying the strongest AADC fluorescence was selected as the representative for each mouse, and its adjacent section was stained separately to identify c-Fos positive cells. […]

[3] abbreviates: behavior study, FUS+AADC-IKVAV+L-DOPA, two FUS sites.

B1: AADC-IKVAV: aromatic-L-amino-acid decarboxylase (AADC) protein fused with short peptide IKVAV (SEQ ID NO: 23); CDS SEQ ID NO: 21 (protein)
chain: MRGSHHHHHHGMASMTGGQQMGRDLYDDDDKDPMNASEFRRRGKEMVDYMANYMEGIEGRQVYPDVEPGYLRPLIPAAAPQEPDTFEDIINDVEKIIMPGVTHWHSPYFFAYFPTASSYPAMLADMLCGAIGCIGFSWAASPACTELETVMMDWLGKMLELPKAFLNEKAGEGGGVIQGSASEATLVALLAARTKVIHRLQAASPELTQAAIMEKLVAYSSDQAHSSVERAGLIGGVKLKAIPSDGNFAMRASALQEALERDKAAGLIPFFMVATLGTTTCCSFDNLLEVGPICNKEDIWLHVDAAYAGSAFICPEFRHLLNGVEFADSFNFNPHKWLLVNFDCSAMWVKKRTDLTGAFRLDPTYLKHSHQDSGLITDYRHWQIPLGRRFRSLKMWFVFRMYGVKGLQAYIRKHVQLSHEFESLVRQDPRFEICVEVILGLVCFRLKGSNKVNEALLQRINSAKKIHLVPCHLRDKFVLRFAICSRTVESAHVQRAWEHIKELAADVLRAEREGGSGSSGGSGGSGGSGIKVAV
modifications: misc_feature 1..1602 Synthetic: AADC-IKVAV
B1: the Weight loss in series [1] (FUS-BBBO + protein i.v., RLuc8.6-IKVAV 104 mg/kg) is 10.3±0.5%; in series [1] (protein i.v. alone without FUS) it was 13.8±0.8%. Besides, the “numbers of GFAP+ astrocytes in targeted area vs contralateral site” value with GFAP+ astrocytes is given as “did not affect”. For the same molecule, the results for the “local AADC levels (AADC+ pixels) in FUS-targeted region vs FUS alone control group” value in series [2] (with subsequent L-DOPA 2 mg/kg i.p.) and in series [2] (without L-DOPA) were 38.5 (±6.1) fold and 41.8 (±8.9) fold, respectively. For the same molecule, the “mice with detectable retention within the CPu” value in series [2] (11 mice receiving AADC-IKVAV) was determined as 73%. In series [2] (setting [3]), the “levels of local AADC (AADC+ pixels, left CPu) vs FUS alone group” value is on record as 13.3 (±2.8) fold. In addition, the “levels of local AADC (AADC+ pixels, left CPu) vs untreated group” value in series [2] (setting [3]) is recorded as 93.3(±19.5) fold. Further, the “presence of delivered enzyme in the FUS-targeted area by immunostaining” value in series [2] (behavior study, two FUS sites, 2 days after delivery) is reported as “present in the FUS-targeted area in all mice”. For the same molecule, the “mice with efficient retention within 100 μm of the CPu” value in series [2] (remaining mice of 11) is 27%.
